Laboratory results published in article PMC6753139, “TRIM66 reads unmodified H3R2K4 and H3K56ac to respond to DNA damage in embryonic stem cells” (Nature Communications, 2019).
“Also recorded” adds a separate entry of the source.

What was measured:
[1] = target: T1, TRIM66-WT965-1160 (Homo sapiens, UniProt O15016); test: ITC, PHD-Bromodomain wild type; type: binding; details: ITC, 25 °C, pH 7.5
T1 construct: ITC titration: titrating TRIM66-WT965-1160 with various histone H3 peptides; GST (N, cleaved yes); made in house; host or cells: Escherichia coli BL21 (DE3)
T1 sequence (O15016 1100-1295): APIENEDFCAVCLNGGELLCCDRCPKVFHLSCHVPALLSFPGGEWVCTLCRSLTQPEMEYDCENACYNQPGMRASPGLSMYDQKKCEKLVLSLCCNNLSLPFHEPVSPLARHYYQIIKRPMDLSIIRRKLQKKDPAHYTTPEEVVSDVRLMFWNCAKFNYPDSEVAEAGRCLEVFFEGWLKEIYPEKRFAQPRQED
Description: We next performed the glutathione S-transferase (GST) pulldown assays of the TRIM66-WT965-1160 against the calf thymus histones to verify the histone-binding ability of TRIM66 PHD-Bromodomain. […] The PHD of TRIM66 shared a low conservation with those of ING4, PHF2, and BPTF, and lacked the conserved aromatic residues, which were necessary for binding H3K4me2/3[40]–[42] (Supplementary Fig. 2b). Nevertheless, TRIM66 was highly conserved in sequence and structure with the PHDs of TRIM24 and TRIM33 (Fig. 1c and Supplementary Fig. 2b), which were reported to bind H3K4me0[5],[6]; thus, we speculated that the PHD of TRIM66 could bind H3K4me0. To verify this hypothesis, we performed isothermal titration calorimetry (ITC)-based binding assays. […] Based on previous researches reporting the acetyl-lysine binding partners of Bromodomain[3]–[12], we chose a series of related peptides derived from H3 and H4, to test their interactions with TRIM66-WT965-1160 by ITC experiments. […] We further found the acetylated state of K56 was necessary for this binding (Supplementary Fig. 3b).
We next titrated the TRIM66-WT965-1160 with a series of R2-methylated H3 peptides through ITC assays. […] This finding was consistent with the structural observation that each NηH atom of the R2 formed a hydrogen bond with residues in protein (Fig. 2d).
The DNA fragments of human TRIM66_968-1160, TRIM24_824-1006, and TRIM33_882-1087 were amplified from a human bone marrow cDNA library using a PCR-based cloning strategy. The fragments of TRIM66-WT968-1160 were inserted into a pGEX-4T-1 plasmid (GE Healthcare). The fragments of TRIM24_824-1006 and TRIM33_882-1087 were ligated into a pET-SUMO-28a (+) plasmid (Novagen). The DNA fragments of TRIM66-MUT968-1160 and TRIM66-WT965-1160 with codon optimization were synthesized by General Biosystems (sequence was shown in Supplementary Methods) and inserted into a pGEXT-4T-1 plasmid (GE Healthcare). Mutants of TRIM66 PHD-Bromo were generated through PCR using the Mutant Best kit (Takara). The mutation of point mutant based on the codon-optimized DNA sequence of TRIM66-WT965-1160. All constructs were expressed in Escherichia coli BL21 (DE3). The construct of ASF1a1-156 inserted into a pRSFDuet plasmid (courtesy of Ruiming Xu Lab, Institute of Biophysics, Chinese Academy of Sciences) was expressed in E. coli BL21 (DE3) RIL. The construct of full-length H4 inserted into a pET3a plasmid was expressed in E. coli BL21 (DE3). The expression of full-length histone H3K56ac was performed in BL21 (DE3) cells transformed with pBK-AxcKRS3 and pET22b encoding H3 with amber codons at the K56 site[12]. The DNA fragment of full-length TRIM66 was synthesized by General Biosystems and ligated into fugw vector (Addgene). See the information of protein sequence in Supplementary Table 1.
(§1) The calorimetric experiments were performed at 25 °C using a MicroCal PEAQ-ITC. The proteins were dialyzed using a buffer containing 20 mM Tris and 100 mM NaCl at pH 7.5. Lyophilized peptides were dissolved in the same buffer and adjusted to pH 7.5 prior to use. Peptide concentrations were estimated from the quantitative NMR experiments[73],[74]. ITC measurements were performed via injection of 0.7–4 mM peptide into a cell containing 0.12 mM TRIM24-PHD-Bromo, 0.05 mM TRIM33 PHD-Bromo, and 0.05 or 0.11–0.15 mM TRIM66-PHD-Bromo (or its mutants). The ITC data were subsequently analyzed using the MicroCal PEAQ-ITC analysis software.

[2] = target: T2, TRIM66-GSGS968-1160 (Homo sapiens, UniProt O15016, A1173S/DEL1165-1171/P1175S/R1172G/S1174G); test: ITC, NMR mutant protein; type: binding; details: 25 °C, 20 mM Tris, 100 mM NaCl, pH 7.5, single measurement
T2 construct: We created a mutant protein (termed TRIM66-GSGS968-1160;); GST (N, cleaved yes); made in house; host or cells: Escherichia coli BL21 (DE3)
T2 sequence (O15016 with tags, fused parts or gaps DEL1165-1171/R1172G/A1173S/S1174G/P1175S): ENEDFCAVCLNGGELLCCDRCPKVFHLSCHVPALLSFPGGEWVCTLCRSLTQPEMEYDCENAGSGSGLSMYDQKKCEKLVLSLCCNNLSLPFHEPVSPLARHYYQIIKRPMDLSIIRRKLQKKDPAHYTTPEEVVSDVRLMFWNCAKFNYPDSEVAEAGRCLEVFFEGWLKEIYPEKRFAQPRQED
Experimental: To investigate the interaction between the H3K56ac peptide and the TRIM66 PHD-Bromodomain, we performed a nuclear magnetic resonance (NMR) titration experiment. We created a mutant protein (termed TRIM66-GSGS968-1160; Supplementary Fig. 1e, Supplementary Fig. 7a, b, Supplementary Table 1, and Supplementary Note 2).
as §1, with “software. […]” for “software.”
protein (TRIM66-WT965-1160) in all the ITC and GST pull down interaction assays. Meanwhile, the […]
experiments and crystal experiment, respectively. […]
combinational manner (Fig. 1d). To further figure out the binding mode between the TRIM66 PHD-Bromodomain and the united H3(1-15)-(48-57) K56ac peptide, we performed a NMR titration experiment and carefully analyzed the linewidth changes of TRIM66 -GSGS968-1160 (this protein is […]

[3] = target: T3, TRIM24_824-1006 (Homo sapiens, UniProt O15164); test: ITC, PHD-Bromodomain; details: 25 °C, 20 mM Tris, 100 mM NaCl, pH 7.5, single measurement, error from curve fit, Weak binding = ITC curves cannot be fitted reliably
T3 construct: The fragments of TRIM24_824-1006 and TRIM33_882-1087 were ligated into a pET-SUMO-28a (+) plasmid; His-SUMO (N, cleaved yes); made in house; host or cells: Escherichia coli BL21 (DE3)
T3 sequence (O15164 824-1006): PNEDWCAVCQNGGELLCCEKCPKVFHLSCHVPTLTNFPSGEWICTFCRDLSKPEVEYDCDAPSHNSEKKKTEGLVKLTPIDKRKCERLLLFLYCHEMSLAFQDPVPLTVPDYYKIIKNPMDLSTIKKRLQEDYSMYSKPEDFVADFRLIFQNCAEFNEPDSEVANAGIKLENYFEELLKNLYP
Description: (§2) We subsequently compared the complex structure of TRIM24, TRIM33, and TRIM66 with H3 peptide. […] (Fig. 2d). […] However, they were sensitive to H3R2me2s (Table 2, Supplementary Fig. 5b, c, and Supplementary Table 2).
(§3) The DNA fragments of human TRIM66_968-1160, TRIM24_824-1006, and TRIM33_882-1087 were amplified from a human bone marrow cDNA library using a PCR-based cloning strategy. The fragments of TRIM66-WT968-1160 were inserted into a pGEX-4T-1 plasmid (GE Healthcare). The fragments of TRIM24_824-1006 and TRIM33_882-1087 were ligated into a pET-SUMO-28a (+) plasmid (Novagen). The DNA fragments of TRIM66-MUT968-1160 and TRIM66-WT965-1160 with codon optimization were synthesized by General Biosystems (sequence was shown in Supplementary Methods) and inserted into a pGEXT-4T-1 plasmid (GE Healthcare). Mutants of TRIM66 PHD-Bromo were generated through PCR using the Mutant Best kit (Takara). The mutation of point mutant based on the codon-optimized DNA sequence of TRIM66-WT965-1160. All constructs were expressed in Escherichia coli BL21 (DE3). […]
(§4) The calorimetric experiments were performed at 25 °C using a MicroCal PEAQ-ITC. […] Peptide concentrations were estimated from the quantitative NMR experiments[73],[74]. […] The ITC data were subsequently analyzed using the MicroCal PEAQ-ITC analysis software.

[4] = target: T4, TRIM33_882-1087 (Homo sapiens, UniProt Q9UPN9); test: ITC, PHD-Bromodomain; details: 25 °C, 20 mM Tris, 100 mM NaCl, pH 7.5, single measurement, error from curve fit, Weak binding = ITC curves cannot be fitted reliably
T4 construct: The fragments of TRIM24_824-1006 and TRIM33_882-1087 were ligated into a pET-SUMO-28a (+) plasmid; His-SUMO (N, cleaved yes); made in house; host or cells: Escherichia coli BL21 (DE3)
T4 sequence (Q9UPN9 882-1087): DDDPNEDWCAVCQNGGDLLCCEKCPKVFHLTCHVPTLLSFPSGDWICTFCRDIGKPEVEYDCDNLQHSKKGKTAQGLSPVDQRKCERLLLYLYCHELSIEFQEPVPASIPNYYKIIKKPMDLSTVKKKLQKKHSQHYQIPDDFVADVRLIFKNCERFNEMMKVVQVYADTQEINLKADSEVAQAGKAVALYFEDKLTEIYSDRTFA
Description: as §2, §3, §4

[5] = MicroCal PEAQ-ITC, 20 mM Tris, 100 mM NaCl, single measurement, error from curve fit, Weak binding = ITC curves cannot be fitted reliably, N.D. = no detectable binding

Row | Kd [1, 5] [µM] | Kd [2] [µM] | KD [3] | KD [4] | Compound | binding (in words) [1] | KD [1, 5]
1 | 109 | 127 ± 9.53 |  |  | CC[C@H](C)[C@H](NC(=O)[C@H](CCC(=O)O)NC(=O)[C@H](CCCNC(=N)N)NC(=O)[C@@H](N)CC(C)C)C(=O)N[C@@H](CCCNC(=N)N)C(=O)N[C@@H](CCCNC(=N)N)C(=O)N[C@@H](Cc1ccc(O)cc1)C(=O)N[C@@H](CCC(N)=O)C(=O)N[C@@H](CCCCNC(C)=O)C(=O)N[C@@H](CO)C(=O)O [H3_48-57K56ac] |  | 
2 |  |  | Weak binding | Weak binding | H3R2me2s: symmetrically dimethylated H3R2 peptide | obvious reduction in their binding affinities | Weak binding; also recorded: ^aWeak binding
